How the values were obtained:
MBP-RADX = MBP-RADX (Homo sapiens, UniProt Q6NSI4 1-855); experiment: EMSA
MBP-RADX QVPK = MBP-RADX QVPK (Homo sapiens, UniProt Q6NSI4 1-855, Q451A;V452A;P453A;K454A); experiment: EMSA
FLAG-GFP-RADX R389E = FLAG-GFP-RADX R389E (human, UniProt Q6NSI4 1-855, R389E); experiment: pull-down
[1] = target: FLAG-GFP-RADX alanine mutant of residues 365-368 (human, UniProt Q6NSI4 1-855, 4-residue alanine mutation of residues 365-368); experiment: pull-down
FLAG-GFP-RADX = FLAG-GFP-RADX (human, UniProt Q6NSI4 1-855); experiment: pull-down

| Binder | binding result (MBP-RADX) | binding result (MBP-RADX QVPK) | binding result (FLAG-GFP-RADX R389E) | binding result [1] | binding result (FLAG-GFP-RADX) |
| --- | --- | --- | --- | --- | --- |
| dT60 (ssDNA) DNA: TTTTTTTTTTTTTTTTTTTTTTTTTTTTTTTTTTTTTTTTTTTTTTTTTTTTTTTTTTTT | binds | binds | – | – | – |
| Human RAD51 (natural protein, UniProt Q06609 1-339, looked up) MAMQMQLEANADTSVEEESFGPQPISRLEQCGINANDVKKLEEAGFHTVEAVAYAPKKELINIKGISEAKADKILAEAAKLVPMGFTTATEFHQRRSEIIQITTGSKELDKLLQGGIETGSITEMFGEFRTGKTQICHTLAVTCQLPIDRGGGEGKAMYIDTEGTFRPERLLAVAERYGLSGSDVLDNVAYARAFNTDHQTQLLYQASAMMVESRYALLIVDSATALYRTDYSGRGELSARQMHLARFLRMLLRLADEFGVAVVITNQVVAQVDGAAMFAADPKKPIGGNIIAHASTTRLYLRKGRGETRICKIYDSPCLPEAEAMFAINADGVGDAKD | – | – | binds | binds | binds |
| RAD51 K133R (natural protein, human, UniProt Q06609 1-339, looked up) MAMQMQLEANADTSVEEESFGPQPISRLEQCGINANDVKKLEEAGFHTVEAVAYAPKKELINIKGISEAKADKILAEAAKLVPMGFTTATEFHQRRSEIIQITTGSKELDKLLQGGIETGSITEMFGEFRTGRTQICHTLAVTCQLPIDRGGGEGKAMYIDTEGTFRPERLLAVAERYGLSGSDVLDNVAYARAFNTDHQTQLLYQASAMMVESRYALLIVDSATALYRTDYSGRGELSARQMHLARFLRMLLRLADEFGVAVVITNQVVAQVDGAAMFAADPKKPIGGNIIAHASTTRLYLRKGRGETRICKIYDSPCLPEAEAMFAINADGVGDAKD | – | – | – | – | binds |
